How the values were obtained:
purified protein [1] = substrate: O=P(O)(O)OC[C@@H](O)[C@H]1O[C@@H](OP(=O)(O)O)[C@@H](O)[C@@H](O)[C@@H]1O; experiment: purified protein; details: 100 mM Tris/HCl pH 7.8, 5 mM MgCl2, 25°C
purified protein [2] = substrate: O=P(O)(O)OC[C@@H](O)[C@H]1O[C@H](OP(=O)(O)O)[C@@H](O)[C@@H](O)[C@@H]1O; experiment: purified protein; details: 100 mM Tris/HCl pH 7.8, 5 mM MgCl2, 25°C

B1: ecGmhB (Escherichia coli K-12) (protein)
chain: MAKSVPAIFLDRDGTINVDHGYVHEIDNFEFIDGVIDAMRELKKMGFALVVVTNQSGIARGKFTEAQFETLTEWMDWSLADRDVDLDGIYYCPHHPQGSVEEFRQVCDCRKPHPGMLLSARDYLHIDMAASYMVGDKLEDMQAAVAANVGTKVLVRTGKPITPEAENAADWVLNSLADLPQAIKKQQKPAQ
Q: B1 was tested. Which Km (purified protein [1]) did it give?
A: 2.3 ± 0.3 µM

Q: What about the kcat (purified protein [1]) of the same protein?
A: 35.7 ± 1.1 s⁻¹

Q: And the kcat/Km (purified protein [1])?
A: 1.55e+07 M⁻¹ s⁻¹

Q: And the Km (purified protein [2])?
A: 117 ± 15 µM

Q: What about the kcat (purified protein [2]) of the same protein?
A: 3.5 ± 0.2 s⁻¹

Q: And the kcat/Km (purified protein [2])?
A: 29900 M⁻¹ s⁻¹

Source: article PMC9798254
